Article PMC3753675

How the values were obtained:
Assay in all cases: EMSA
GST-hHSF1 (human) = molecular target: T1, GST-hHSF1 (human) (UniProt Q00613); settings: binding buffer ([…], room temperature 2 h
T1 sequence: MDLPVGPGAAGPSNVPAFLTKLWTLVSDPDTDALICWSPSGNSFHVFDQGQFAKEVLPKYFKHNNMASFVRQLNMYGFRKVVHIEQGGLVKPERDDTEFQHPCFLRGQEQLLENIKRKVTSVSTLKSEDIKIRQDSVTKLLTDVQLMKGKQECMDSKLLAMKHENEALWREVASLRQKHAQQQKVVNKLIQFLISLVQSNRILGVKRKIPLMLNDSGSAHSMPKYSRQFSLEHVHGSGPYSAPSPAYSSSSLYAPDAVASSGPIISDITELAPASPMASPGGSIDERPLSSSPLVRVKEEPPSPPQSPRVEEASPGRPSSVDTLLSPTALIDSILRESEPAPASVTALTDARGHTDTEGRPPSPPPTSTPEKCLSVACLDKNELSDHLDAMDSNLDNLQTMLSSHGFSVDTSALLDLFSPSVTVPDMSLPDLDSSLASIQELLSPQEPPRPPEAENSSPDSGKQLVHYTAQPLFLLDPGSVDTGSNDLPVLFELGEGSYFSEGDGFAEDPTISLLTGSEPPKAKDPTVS

GST-hHSF2 (human) = molecular target: T2, GST-hHSF2 (human) (UniProt Q03933); settings: binding buffer ([…], room temperature 2 h
T2 sequence: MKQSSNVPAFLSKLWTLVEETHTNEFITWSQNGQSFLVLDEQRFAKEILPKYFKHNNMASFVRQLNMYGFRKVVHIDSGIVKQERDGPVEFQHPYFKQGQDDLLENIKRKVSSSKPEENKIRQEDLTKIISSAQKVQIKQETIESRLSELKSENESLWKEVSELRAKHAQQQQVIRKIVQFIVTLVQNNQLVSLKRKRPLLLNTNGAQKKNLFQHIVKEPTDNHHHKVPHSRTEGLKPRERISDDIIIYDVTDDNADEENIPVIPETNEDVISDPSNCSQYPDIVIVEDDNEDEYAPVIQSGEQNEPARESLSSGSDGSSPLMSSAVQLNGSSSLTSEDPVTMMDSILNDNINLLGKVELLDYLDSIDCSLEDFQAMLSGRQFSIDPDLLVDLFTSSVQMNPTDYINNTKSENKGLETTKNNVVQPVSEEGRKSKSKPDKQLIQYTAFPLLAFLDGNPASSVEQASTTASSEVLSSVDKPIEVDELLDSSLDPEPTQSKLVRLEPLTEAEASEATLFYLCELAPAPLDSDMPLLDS

dHSF = molecular target: T3, dHSF (Drosophila melanogaster, UniProt P22813 1-691)
T3 sequence: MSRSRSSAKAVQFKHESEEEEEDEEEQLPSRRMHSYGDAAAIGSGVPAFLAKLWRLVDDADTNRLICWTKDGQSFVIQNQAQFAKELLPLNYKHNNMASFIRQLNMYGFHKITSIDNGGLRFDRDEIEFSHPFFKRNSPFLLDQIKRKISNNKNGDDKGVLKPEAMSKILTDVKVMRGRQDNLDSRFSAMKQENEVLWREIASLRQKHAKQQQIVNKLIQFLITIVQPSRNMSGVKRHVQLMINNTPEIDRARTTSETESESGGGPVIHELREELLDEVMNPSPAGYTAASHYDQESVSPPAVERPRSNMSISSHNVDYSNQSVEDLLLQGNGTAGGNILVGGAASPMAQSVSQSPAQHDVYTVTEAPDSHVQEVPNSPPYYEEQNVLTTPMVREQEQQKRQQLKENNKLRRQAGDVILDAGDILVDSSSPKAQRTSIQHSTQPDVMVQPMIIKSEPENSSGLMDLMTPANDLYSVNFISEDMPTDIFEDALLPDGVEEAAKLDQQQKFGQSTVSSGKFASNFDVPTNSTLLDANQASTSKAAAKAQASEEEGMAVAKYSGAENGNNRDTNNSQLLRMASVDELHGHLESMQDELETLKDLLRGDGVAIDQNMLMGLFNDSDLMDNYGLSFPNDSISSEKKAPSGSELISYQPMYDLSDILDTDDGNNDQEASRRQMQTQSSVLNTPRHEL

GGGAAUGGAUCCACAUCUACGAAUUCCACUCCAUAGUAUCUAGAAGCCCUGCCGAAAACGAGAGCGCUUACGCUUAUAAAUGAUCAACCUACCUCGUUCACUGCAGACUUGACGAAGCUU [hHSF1-R5-1]
Kd (GST-hHSF1 (human)): < 20 nM | Kd (GST-hHSF2 (human)): < 20 nM

GGGAAUGGAUCCACAUCUACGAAUUCAAUCAAGUCCCCAGACUCAGCAACACUGGACAGCGAUAUGCAGAUAACCAAGACCAAUUCACUCCAGUUCACUGCAGACUUGACGAAGCUU [hHSF2-R5-2]
Kd (GST-hHSF1 (human)): < 20 nM | Kd (GST-hHSF2 (human)): < 20 nM

B1: hHSF1-R5-1 (structured_RNA)
RNA: GGGAAUGGAUCCACAUCUACGAAUUCCACUCCAUAGUAUCUAGAAGCCCUGCCGAAAACGAGAGCGCUUACGCUUAUAAAUGAUCAACCUACCUCGUUCACUGCAGACUUGACGAAGCUU
Kd (dHSF): ~70 nM

B2: hHSF2-R5-2 (structured_RNA)
RNA: GGGAAUGGAUCCACAUCUACGAAUUCAAUCAAGUCCCCAGACUCAGCAACACUGGACAGCGAUAUGCAGAUAACCAAGACCAAUUCACUCCAGUUCACUGCAGACUUGACGAAGCUU
Kd (dHSF): ~70 nM
